Assay results from publication PMC6795518.

Legend:
[1] = molecular target: TcdB2-TccC3 from Photorhabdus luminescens (Pl-TcdB2-TccC3) (Photorhabdus luminescens) (UniProt Q8GF99); assay: BLI
[2] = molecular target: XptA1 from Xenorhabdus nematophila (Xn-XptA1) (Xenorhabdus nematophila); assay: cryo-EM structure

## TcdA4 from Morganella morganii (Mm-TcdA4) (natural protein)
[1]
  Kd: 11.3 nM

## XptA1 from Xenorhabdus nematophila (Xn-XptA1) (natural protein)
[1]
  Kd: 1.99 nM
[2]
  stoichiometry N: 5

## TcdA1 from Photorhabdus luminescens (Pl-TcdA1), Q9RN43 1-2516
[1]
  Kd: 0.63 nM
